Laboratory results published in the nanobody polyreactivity screen of Harvey et al. (2022).

Assay: yeast display, Sf9 membrane polyspecificity reagent, FACS + sequencing; frameworks hold sequencing errors
Method in brief: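 After 36–48 hours of galactose induction, yeast (Saccharomyces cerevisiae BJ5465) displaying a synthetic nanobody library were stained at 4 °C for 1 hour with 10% biotinylated, detergent-solubilized Sf9 membrane reagent. Streptavidin microbeads enriched the stained cells before FACS sorting into low and high (top ~1%) gates on anti-HA and streptavidin fluorescence. Each clone's polyreactivity label reflects its gate of origin.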

Sequence	polyreactivity (PSR sort gate)
QVQLVESGGGLVQAGGSLRLSCAASGSTFRDNAMGWYRQAPGTERELVAAISRRGGNTYYADSVKGRFTISRDNAKNTVYLQMNSLKPEDTAVYYCASEVKTSYSYTHDGYWGQGTKVTVSS	high polyreactivity
QVQLVESGGGLVQAGGSLRLSCAASGSTFRDNVMGWYRQAPGKEWEFVAAISSSVGSTYYADSVKGRFTISRDNAKNTVYLQMNSLKPEDTAVYYCAARLWPSYLSYGKTGDYWGQGTQVTVSS	high polyreactivity
QVQLVESGGGLVQAGGSLRLSCAASGSTFRDYAMGWYRQAPGKERELVAAITYSDGGTYYADSVKGRFTISRDNAKNTVYLQMNSLKPEDTAVYYCAADYPIYSFYYSAYFIFGYWGQGSQVTVSS	low polyreactivity
QVQLVESGGGLVQAGGSLRLSCAASGSTFRDYAMGWYRQAPGTERELVAAITSGGSTNYADSVKGRFTISRDNAKNSVYLQMISLKPEDTAVYYCNARYAGWYTPWGRQSVYSDDYWGQGTQVTVSS	low polyreactivity
QVQLVESGGGLVQAGGSLRLSCAASGSTFRDYDMGWYRQAPGKERELVAAISLSGGRTHYADSVKGRFTISRDNAKNTVYLQMNSLKPEDTAVYYCAARNTGPVQYYYWGQGTQVTVSS	low polyreactivity
QVQLVESGGGLVQAGGSLRLSCAASGSTFRFNTMGWYRQAPGKERELVAAITRGGSTNYADSVKGRFTISRDNAKNTVYLQMNSLKPEDTAVYYCNTTRYSVRKYDYWGQGTQVTVSS	low polyreactivity
QVQLVESGGGLVQAGGSLRLSCAASGSTFRFYAMGWYRQAPGKERELVAGITGSGDSTYYADSVKGRFTISRDNAKNTVYLQMNSLKPEDTAVYYCNKRFLFAGFDYLGQGTQVTVSS	low polyreactivity
QVQLVESGGGLVQAGGSLRLSCAASGSTFRGNAMGWYRQAPGKERELVAGISGSGGRTYYADSVKGRFTISRDNAKNTVYLQMNSLKPEDTAVYYCAARSTVYEYFYYRGWWEYYYWGQGTQVTVSS	low polyreactivity
QVQLVESGGGLVQAGGSLRLSCAASGSTFRGNAMGWYRQAPGKERELVATISRSNGGSTYYADSVKGRFTISRDIAKNTVYLQMNSLKPEDTEVYYCAARSYIGISTYGYWGLGTQVTVSS	low polyreactivity
QVQLVESGGGLVQAGGSLRLSCAASGSTFRGNAMGWYRQAPGNEREFVAAITVSGGSTYYADSVKGRFTSSRDNAKNTVYLQMISLKPEDTAVYYCAGLTRGRGYDSWGQGTQVTVSS	high polyreactivity
QVQLVESGGGLVQAGGSLRLSCAASGSTFRGYAMGWSRQAPGKERELVATITSGGSTKFADSVKGRVTISRDNAKNTVYLQMNSLKPEDTAVYYFNAGPRSWSPYRHWVDFWGQGTQVTVSS	low polyreactivity
QVQLVESGGGLVQAGGSLRLSCAASGSTFRGYAMGWYRQAPGKERELVAAISWSGGSTYYADSVKGRFTISRDNAKNTVYLQMNSLKPEDTAVYYCNAVLYRFAYNYWGQGTQVTVSS	low polyreactivity
QVQLVESGGGLVQAGGSLRLSCAASGSTFRGYVMGWYRQAPGKERELVAAITWGGGRTYYADSVKGRFTISRDNAKNTVYLQMNSLKPEDTAVYYCAARVRGQGSYQFGYWGQGTQVTVSS	high polyreactivity
QVQLVESGGGLVQAGGSLRLSCAASGSTFRGYVMGWYRQAPGKERELVASINWDGGSTYYADSVKGRFTISRDNAKNTVYLQMNSLKPEDTAVYYCAARRVGGGFYTWRNPAYEYWGQGTQVTVSS	high polyreactivity
QVQLVESGGGLVQAGGSLRLSCAASGSTFRIYAMGWYRQAPGKERELVAAISSGGRTNYADSVKGRFTISRDNAKNNVYLQMNSLKPEDTAVYYCNAVFLPTYHFDYWGQGTQVTVSS	high polyreactivity
QVQLVESGGGLVQAGGSLRLSCAASGSTFRIYAMGWYRQAPGKERELVAAISWSSGSTYYADSVKGRFTISRDNAKNTVYFQMNSLKPEDTAVYYCATYARRSGYYYWGQGTQVTVSS	high polyreactivity
QVQLVESGGGLVQAGGSLRLSCAASGSTFRIYAMGWYRQAPGKERELVAAITSGGDTNYADSVKGRFTISRDNAKNTVYLQMNSLKPEDTAVYYCAADGHSVYTELDYWGQGTQVTVSS	low polyreactivity
QVQLVESGGGLVQAGGSLRLSCAASGSTFRKYAMGWYRQAPGKEREFVAAITWSTGTTYYADSVKGRFTISRDNAKNNVYLQMNSLKPEDTAVYYSAADSQPPHELDESIEHESWGQGTQVTVSS	low polyreactivity
QVQLVESGGGLVQAGGSLRLSCAASGSTFRKYAMGWYRQAPGKEREFVAAITWSTGTTYYADSVKGRFTISRDNAKNTVYLQMNSLIPEDTAVYYCAADSQPPHELYESIEHESWGQGTQVTVSS	low polyreactivity
QVQLVESGGGLVQAGGSLRLSCAASGSTFRLYAMGWYRQAPGKERELVAAISSRGGTTYYADSVKGRFTISRDNAKNTVYLQMNSLKPEDTAVYYCAAPRASQYGDDYWGQGTQVTVSS	high polyreactivity
QVQLVESGGGLVQAGGSLRLSCAASGSTFRNNAMGWYRQAPGKERELVAAISRGGGSTYYADSVKGRFTISRDNAKNTVYLQMNSLKPEDTAVYYCARRPTGIYDYWGQGTQVTVSS	high polyreactivity
QVQLVESGGGLVQAGGSLRLSCAASGSTFRNYAMGWYRQAPGKERELVAAISGSGGRTNYADSVKGRFTISRDNAKNTVYLQMNSLKPEDNAVYYCNARFPDWALSEISHSTTYGYWGQGTQVTVSS	low polyreactivity
QVQLVESGGGLVQAGGSLRLSCAASGSTFRNYAMGWYRQAPGKERELVAAISGSGGRTNYADSVKGRFTISRDNAKNTVYLQMNSLKPEDTAVYYCNGRFPDWALSEISHSTTYGYWGQGTQVTVSS	low polyreactivity
QVQLVESGGGLVQAGGSLRLSCAASGSTFRNYAMGWYRQAPGKERELVAAISRGDGTYYADSVKGRFTISRDNAKNTVYLQMNSLKPEDTAVYYCAAAYRGRQNPMGYWGQGTQVTVSS	high polyreactivity
QVQLVESGGGLVQAGGSLRLSCAASGSTFRNYSMGWYRQAPGKERELVAAISGSGGRTNYADSVKGRFTISRDNAKNTVYLQMNSLKPEDTAVYYCNADGGPGYPRAYDYWGQGTQVTVSS	low polyreactivity
QVQLVESGGGLVQAGGSLRLSCAASGSTFRPNAMGWYRQAPGKERELVAGISLNGTSTYYADSVKGRFTISRDNAKNTVYLQMNSLKPEDTAVYYCAADYQCGRGAEPYVFFDPEMDYWGQGTQVTVSS	low polyreactivity
QVQLVESGGGLVQAGGSLRLSCAASGSTFRPSAMGWYRQAPGKERELVAAIRSGRTSYADSVKGRFTISRDYAKNTVYLQMNSLKPEDTAVYYCAKASRGGYYWGQGTQVTVSS	high polyreactivity
QVQLVESGGGLVQAGGSLRLSCAASGSTFRPYAMGGYRQAPGKERELVARITGSGDSTYYADSVKGRFTISRDNAKNTVYLQMNSLKPEDTAVYYCAREFVFSLSGFDYWGQGTQVSVSS	low polyreactivity
QVQLVESGGGLVQAGGSLRLSCAASGSTFRPYAMGWYRPAPGKEREFVASISNTGGSTSYADSVKGRFTISRDNAMNTVYFQMNSLKPEDTAVYYCAARFGYRPWYRMDYWGQGTQVAVSS	high polyreactivity
QVQLVESGGGLVQAGGSLRLSCAASGSTFRPYAMGWYRQAPGKERELVARITKNGGSTYYADSVKGRFTISRDNAKNTVYLQMNSLKPEDTEVYYCAVRAWDPYTGKSDYWGQGTQVTVSS	low polyreactivity
